Laboratory results from patent publication US20070100561A1 (published 2007).

Target: T1, DPP-IV as immobilized on the CM5 surface plasmon resonance sensor (Biacore) (human, UniProt P27487 31-766)
T1 construct: Same recombinant sDPP-IV polypeptide as m1; Amine-coupled, about 10 000 RU; in one flow cell cross-linked with carbodiimide/N-hydroxysuccinimide; also called sDPP-IV
Experiment: SPR (Biacore), DPP-IV immobilized on CM5 sensor
Procedure: The organic adlayer on this sensor type consists of carboxymethylated dextran (MW≈100 kDA). […] The surfaces of two flow cells were modified with protein. […] Hepes buffer (0.01 M Hepes, pH 7.4, 0.15 M NaCl, 3 mM EDTA, 0.005% polysorbate 20 (v/v)) was used as the running buffer. […] The final inhibitor solution contained less than 0.1% DMSO. Binding experiments were carried out by contacting the immobilized protein surfaces with inhibitor solutions of varying concentrations at a flow rate of 10 μl/min or 30 μl/min. After each contact with inhibitor, the protein surfaces were regenerated by extensively washing with running buffer.

T1 sequence (P27487 31-766 limits assumed): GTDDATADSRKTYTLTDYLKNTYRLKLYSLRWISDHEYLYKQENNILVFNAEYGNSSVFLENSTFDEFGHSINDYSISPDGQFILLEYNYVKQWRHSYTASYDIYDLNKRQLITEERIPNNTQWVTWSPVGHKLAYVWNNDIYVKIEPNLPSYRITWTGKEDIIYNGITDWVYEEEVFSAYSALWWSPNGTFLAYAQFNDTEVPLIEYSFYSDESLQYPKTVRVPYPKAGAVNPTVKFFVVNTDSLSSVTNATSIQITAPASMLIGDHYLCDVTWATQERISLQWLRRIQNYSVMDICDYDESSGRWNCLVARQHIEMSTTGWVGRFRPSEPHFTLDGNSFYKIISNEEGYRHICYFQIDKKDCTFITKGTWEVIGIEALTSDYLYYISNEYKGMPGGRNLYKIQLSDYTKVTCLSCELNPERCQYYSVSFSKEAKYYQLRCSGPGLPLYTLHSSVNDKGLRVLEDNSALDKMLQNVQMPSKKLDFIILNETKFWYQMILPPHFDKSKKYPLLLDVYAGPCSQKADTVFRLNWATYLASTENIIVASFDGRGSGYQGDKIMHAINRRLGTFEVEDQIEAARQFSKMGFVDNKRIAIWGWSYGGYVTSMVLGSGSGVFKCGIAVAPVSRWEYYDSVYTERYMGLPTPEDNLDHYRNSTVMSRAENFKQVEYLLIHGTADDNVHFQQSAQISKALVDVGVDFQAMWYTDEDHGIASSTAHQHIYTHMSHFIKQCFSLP

- Kd: 3.15 nM
- koff: 8.75e-05 s⁻¹
- kon: 29800 M⁻¹ s⁻¹
B1: adenosine deaminase (ADA; Sigma Type IV, from calf intestinal mucosa) (enzyme, bovine, UniProt P56658 2-357, looked up)
chain: AQTPAFNKPKVELHVHLDGAIKPETILYYGRKRGIALPADTPEELQNIIGMDKPLSLPEFLAKFDYYMPAIAGCREAVKRIAYEFVEMKAKDGVVYVEVRYSPHLLANSKVEPIPWNQAEGDLTPDEVVSLVNQGLQEGERDFGVKVRSILCCMRHQPSWSSEVVELCKKYREQTVVAIDLAGDETIEGSSLFPGHVKAYAEAVKSGVHRTVHAGEVGSANVVKEAVDTLKTERLGHGYHTLEDATLYNRLRQENMHFEVCPWSSYLTGAWKPDTEHPVVRFKNDQVNYSLNTDDPLIFKSTLDTDYQMTKNEMGFTEEEFKRLNINAAKSSFLPEDEKKELLDLLYKAYGMPSPA
notes: Bought protein purified from tissue; also called ADA from bovine
